Measured values published in patent publication US20210340217A1, “NOVEL PEPTIDES AND COMBINATION OF PEPTIDES FOR USE IN IMMUNOTHERAPY AGAINST OVARIAN CANCER AND OTHER CANCERS” (Immatics Biotechnologies GmbH, priority 2017, published 2021).

Assays:
[1] = target: HLA-B*44:02 (Homo sapiens, UniProt P01889, A223V/A65T/A93T/A95T/D201E/D98Y/E176V/E187L/E204Q/E69K/G107R/H137Y/K202T/L105A/L119I/N104T/N87E/Q56L/Q94N/R106L/R155S/R180D/S101N/S121R/S35A/S48T/T118I/V36M/W191S/Y140D/Y91S); assay: MHC binding assay (UV-ligand exchange, beta2m ELISA); conditions: peptide exchange yield
Source text: (§1) Candidate peptides for T cell based therapies according to the present invention were further tested for their MHC binding capacity (affinity). The individual peptide-MHC complexes were produced by UV-ligand exchange, where a UV-sensitive peptide is cleaved upon UV-irradiation, and exchanged with the peptide of interest as analyzed. Only peptide candidates that can effectively bind and stabilize the peptide-receptive MHC molecules prevent dissociation of the MHC complexes. To determine the yield of the exchange reaction, an ELISA was performed based on the detection of the light chain (β2m) of stabilized MHC complexes. The assay was performed as generally described in Rodenko et al. (Rodenko et al., 2006).
(§2) 96 well MAXISorp plates (NUNC) were coated over night with 2 ug/ml streptavidin in PBS at room temperature, washed 4× and blocked for 1 h at 37° C. in 2% BSA containing blocking buffer. Refolded HLA-A*02:01/MLA-001 monomers served as standards, covering the range of 15-500 ng/ml. Peptide-MHC monomers of the UV-exchange reaction were diluted 100-fold in blocking buffer. Samples were incubated for 1 h at 37° C., washed four times, incubated with 2 ug/ml HRP conjugated anti-β2m for 1h at 37° C., washed again and detected with TMB solution that is stopped with […]. Absorption was measured at 450 nm. Candidate peptides that show a high exchange yield (preferably higher than 50%, most preferred higher than 75%) are generally preferred for a generation and production of antibodies or fragments thereof, and/or T cell receptors or fragments thereof, as they show sufficient avidity to the MHC molecules and prevent dissociation of the MHC complexes.

[2] = target: HLA-B*07:02 (Homo sapiens, UniProt P01889); assay: as above; conditions: peptide exchange yield
Source text: as §1, §2

Row | Peptide exchange [1] | Peptide exchange [2] | Substance
1 | “++” (>20% = ++) |  | 52 (AEFLLRIFL; listed as Homo sapiens) [compound 52]
2 | “+++” (>50 = +++) |  | 53 (MEHPGKLLF; listed as Homo sapiens) [compound 53]
3 | “+++” (>50 = +++) |  | 54 (AEITITTQTGY; listed as Homo sapiens) [compound 54]
4 | “+++” (>50 = +++) |  | 55 (HETETRTTW; listed as Homo sapiens) [compound 55]
5 | “+++” (>50 = +++) |  | 56 (SEPDTTASW; listed as Homo sapiens) [compound 56]
6 | “+++” (>50 = +++) |  | 57 (QESDLRLFL; listed as Homo sapiens) [compound 57]
7 | “++” (>20% = ++) |  | 58 (GEMEQKQL; listed as Homo sapiens) [compound 58]
8 | “+++” (>50 = +++) |  | 59 (SENVTMKVV; listed as Homo sapiens) [compound 59]
9 | “+++” (>50 = +++) |  | 173 (AEAQVGDERDY; listed as Homo sapiens) [compound 173]
10 | “++++” (>75% = ++++) |  | 174 (AEATARLNVF; listed as Homo sapiens) [compound 174]
11 | “++” (>20% = ++) |  | 175 (AEIEPKADG; listed as Homo sapiens) [compound 175]
12 | “+++” (>50 = +++) |  | 176 (AEIEPKADGSW; listed as Homo sapiens) [compound 176]
13 | “+++” (>50 = +++) |  | 177 (TEVGTMNLF; listed as Homo sapiens) [compound 177]
14 | “+++” (>50 = +++) |  | 178 (NELFRDGVNW; listed as Homo sapiens) [compound 178]
15 | “++” (>20% = ++) |  | 179 (REAGDEFEL; listed as Homo sapiens) [compound 179]
16 | “++” (>20% = ++) |  | 180 (REAGDEFELRY; listed as Homo sapiens) [compound 180]
17 | “++” (>20% = ++) |  | 181 (GEGPKTSW; listed as Homo sapiens) [compound 181]
18 | “+++” (>50 = +++) |  | 182 (KEATEAQSL; listed as Homo sapiens) [compound 182]
19 | “++” (>20% = ++) |  | 183 (YEKGIMQKV; listed as Homo sapiens) [compound 183]
20 | “+++” (>50 = +++) |  | 184 (AELEALTDLW; listed as Homo sapiens) [compound 184]
21 | “++” (>20% = ++) |  | 185 (AERQPGAASL; listed as Homo sapiens) [compound 185]
22 | “++” (>20% = ++) |  | 186 (REGPEEPGL; listed as Homo sapiens) [compound 186]
23 | “+++” (>50 = +++) |  | 187 (GEAQTRIAW; listed as Homo sapiens) [compound 187]
24 |  | “+++” (>50 = +++) | 344 (LPTQTTSSL; listed as Homo sapiens) [compound 344]

Row | Peptide exchange [1] | Peptide exchange [2] | Substance
25 |  | “++” (>20% = ++) | 345 (LPTSESLVSF; listed as Homo sapiens) [compound 345]
26 |  | “+++” (>50 = +++) | 346 (LPWDTSTTLF; listed as Homo sapiens) [compound 346]
27 |  | “++” (>20% = ++) | 347 (MPLTTGSQGM; listed as Homo sapiens) [compound 347]
28 |  | “+++” (>50 = +++) | 348 (MPNSAIPFSM; listed as Homo sapiens) [compound 348]
29 |  | “+++” (>50 = +++) | 349 (MPSLSEAMTSF; listed as Homo sapiens) [compound 349]
30 |  | “+++” (>50 = +++) | 350 (NPSSTTTEF; listed as Homo sapiens) [compound 350]
31 |  | “++” (>20% = ++) | 351 (NVLTSTPAF; listed as Homo sapiens) [compound 351]
32 |  | “+++” (>50 = +++) | 352 (SPAETSTNM; listed as Homo sapiens) [compound 352]
33 |  | “+++” (>50 = +++) | 353 (SPAMTTPSL; listed as Homo sapiens) [compound 353]
34 |  | “+++” (>50 = +++) | 354 (SPLPVTSLL; listed as Homo sapiens) [compound 354]
35 |  | “+++” (>50 = +++) | 355 (SPLVTSHIM; listed as Homo sapiens) [compound 355]
36 |  | “+++” (>50 = +++) | 356 (SPNEFYFTV; listed as Homo sapiens) [compound 356]
37 |  | “+++” (>50 = +++) | 357 (SPSPVPTTL; listed as Homo sapiens) [compound 357]
38 |  | “+++” (>50 = +++) | 358 (SPSPVTSTL; listed as Homo sapiens) [compound 358]
39 |  | “+++” (>50 = +++) | 359 (SPSTIKLTM; listed as Homo sapiens) [compound 359]
40 |  | “++” (>20% = ++) | 360 (SPSVSSNTY; listed as Homo sapiens) [compound 360]
41 |  | “+++” (>50 = +++) | 361 (SPTHVTQSL; listed as Homo sapiens) [compound 361]
42 |  | “+++” (>50 = +++) | 362 (SPVPVTSLF; listed as Homo sapiens) [compound 362]
43 |  | “++” (>20% = ++) | 363 (TAKTPDATF; listed as Homo sapiens) [compound 363]
44 |  | “++” (>20% = ++) | 364 (TPLATTQRF; listed as Homo sapiens) [compound 364]
45 |  | “++” (>20% = ++) | 365 (TPLATTQRFTY; listed as Homo sapiens) [compound 365]
46 |  | “++” (>20% = ++) | 367 (TPSVVTEGF; listed as Homo sapiens) [compound 367]
47 |  | “++” (>20% = ++) | 368 (VPTPVFPTM; listed as Homo sapiens) [compound 368]
48 |  | “+++” (>50 = +++) | 369 (FPHSEMTTV; listed as Homo sapiens) [compound 369]

Row | Peptide exchange [1] | Peptide exchange [2] | Substance
49 |  | “+” (>10% = +) | 370 (PGGTRQSL; listed as Homo sapiens) [compound 370]
50 |  | “++” (>20% = ++) | 371 (LYVDGFTHW; listed as Homo sapiens) [compound 371]
51 |  | “+++” (>50 = +++) | 372 (IPRNPPPTLL; listed as Homo sapiens) [compound 372]
52 |  | “+++” (>50 = +++) | 373 (RPRALRDLRIL; listed as Homo sapiens) [compound 373]
53 |  | “+++” (>50 = +++) | 374 (NPIGDTGVKF; listed as Homo sapiens) [compound 374]
54 |  | “++” (>20% = ++) | 375 (AAASPLLLL; listed as Homo sapiens) [compound 375]
55 |  | “+++” (>50 = +++) | 376 (RPRSPAGQVA; listed as Homo sapiens) [compound 376]
56 |  | “+++” (>50 = +++) | 377 (RPRSPAGQVAAA; listed as Homo sapiens) [compound 377]
57 |  | “+++” (>50 = +++) | 378 (RPRSPAGQVAA; listed as Homo sapiens) [compound 378]
58 |  | “+++” (>50 = +++) | 379 (GPFPLVYVL; listed as Homo sapiens) [compound 379]
59 |  | “+++” (>50 = +++) | 380 (IPTYGRTF; listed as Homo sapiens) [compound 380]
60 |  | “++” (>20% = ++) | 381 (LPEQTPLAF; listed as Homo sapiens) [compound 381]
61 |  | “+++” (>50 = +++) | 382 (SPMHDRWTF; listed as Homo sapiens) [compound 382]
62 |  | “+++” (>50 = +++) | 383 (TPTKETVSL; listed as Homo sapiens) [compound 383]
63 |  | “++++” (>75% = ++++) | 384 (YPGLRGSPM; listed as Homo sapiens) [compound 384]
64 |  | “+++” (>50 = +++) | 385 (SPALHIGSV; listed as Homo sapiens) [compound 385]
65 |  | “++” (>20% = ++) | 386 (FPFNPLDF; listed as Homo sapiens) [compound 386]
66 |  | “+++” (>50 = +++) | 387 (APLKLSRTPA; listed as Homo sapiens) [compound 387]
67 |  | “++” (>20% = ++) | 388 (SPAPLKLSRTPA; listed as Homo sapiens) [compound 388]
68 |  | “+++” (>50 = +++) | 389 (SPGAQRTFFQL; listed as Homo sapiens) [compound 389]
69 |  | “+++” (>50 = +++) | 390 (NPDLRRNVL; listed as Homo sapiens) [compound 390]
70 |  | “+++” (>50 = +++) | 391 (APSTPRITTF; listed as Homo sapiens) [compound 391]
71 |  | “+++” (>50 = +++) | 392 (KPIESTLVA; listed as Homo sapiens) [compound 392]
